{"source": "paper PMC12699821", "about": "“STARD4 suppresses tumorigenesis and attenuates enzalutamide resistance via lipid metabolic reprogramming and AR stabilization in prostate cancer” (Journal of Experimental & Clinical Cancer Research : CR, 2025)", "biological_target": "T1, GST-tagged AR (human (Gene ID 367 is the human gene), UniProt P10275 1-920)", "T1 construct": "androgen receptor, Gene ID 367, in vector pGEX-4T-1; also called GST-AR; source: BL21 (Rosetta) bacterial cells, purified (protein purification kit)", "T1 sequence (looked up)": "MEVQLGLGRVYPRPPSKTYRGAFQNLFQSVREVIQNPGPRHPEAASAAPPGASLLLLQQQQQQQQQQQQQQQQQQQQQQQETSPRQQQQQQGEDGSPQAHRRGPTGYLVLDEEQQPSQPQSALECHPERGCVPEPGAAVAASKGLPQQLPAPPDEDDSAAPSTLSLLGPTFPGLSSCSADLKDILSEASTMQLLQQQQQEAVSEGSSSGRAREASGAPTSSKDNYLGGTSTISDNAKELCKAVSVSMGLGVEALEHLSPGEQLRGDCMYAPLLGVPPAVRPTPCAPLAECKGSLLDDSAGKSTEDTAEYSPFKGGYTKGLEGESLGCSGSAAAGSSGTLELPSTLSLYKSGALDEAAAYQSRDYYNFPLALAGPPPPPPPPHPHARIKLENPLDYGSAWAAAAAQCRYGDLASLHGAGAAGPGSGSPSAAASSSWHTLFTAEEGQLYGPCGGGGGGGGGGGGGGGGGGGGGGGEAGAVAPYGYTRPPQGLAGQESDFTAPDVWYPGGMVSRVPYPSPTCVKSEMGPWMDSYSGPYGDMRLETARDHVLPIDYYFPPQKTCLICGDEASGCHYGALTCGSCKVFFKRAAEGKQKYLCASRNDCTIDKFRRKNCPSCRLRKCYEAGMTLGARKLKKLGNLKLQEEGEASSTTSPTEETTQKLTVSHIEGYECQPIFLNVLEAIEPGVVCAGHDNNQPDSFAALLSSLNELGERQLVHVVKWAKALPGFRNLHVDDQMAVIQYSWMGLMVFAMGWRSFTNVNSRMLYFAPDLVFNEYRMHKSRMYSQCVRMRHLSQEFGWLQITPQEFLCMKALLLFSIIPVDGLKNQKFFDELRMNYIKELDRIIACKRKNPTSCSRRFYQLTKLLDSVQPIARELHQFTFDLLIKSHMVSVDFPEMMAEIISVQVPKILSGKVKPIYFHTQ", "assay": "pull-down; purified GST-tagged protein immobilised on glutathione-Sepharose beads, incubated with His-tagged protein in PMSF-supplemented affinity isolation buffer, western blotting", "conditions": "both partners purified", "data": [{"binder": "His-tagged STARD4 (natural protein, human (Gene ID 134429 is the human gene), UniProt Q96DR4 1-205, looked up, STARD4, Gene ID 134429, vector printed as pGMLV; also called His-STARD4; source: BL21 (Rosetta) bacterial cells, purified (protein purification kit)) MEGLSDVASFATKLKNTLIQYHSIEEDKWRVAKKTKDVTVWRKPSEEFNGYLYKAQGVIDDLVYSIIDHIRPGPCRLDWDSLMTSLDILENFEENCCVMRYTTAGQLWNIISPREFVDFSYTVGYKEGLLSCGISLDWDEKRPEFVRGYNHPCGWFCVPLKDNPNQSLLTGYIQTDLRGMIPQSAVDTAMASTLTNFYGDLRKAL", "values": [{"measurement": "binding result", "value": "binds"}]}]}
